Data set [1] relates to HeLa Kyoto. Nature of the data set: melting temperature (median over replicates), in situ; higher = more thermally stable.
Data set [2] deals with HeLa Kyoto. Nature of the data set: solubility in G1/S (NP-40 vs SDS abundance) (log2 ratio); higher = more soluble. Particulars: cell cycle stage: G1/S.
Data set [3] relates to HeLa Kyoto. Nature of the data set: solubility change mitosis vs G1/S (difference of NP-40 vs SDS log2 ratios) (log2 ratio difference); higher = more soluble in mitosis.
In data set [4] the test system is HeLa Kyoto. As to the kind of experiment: thermal stability score vs G1/S (z-score of summed log2 fold changes over temperatures); higher = more thermally stable than in G1/S.
Where [5] appears, read: cell cycle stage: early G1 (4.5 h after nocodazole release).
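Throughout, for melting temperature (median over replicates), in situ: HeLa Kyoto cells synchronized by double thymidine or nocodazole block, proteins quantified by TMT10plex mass spectrometry, three independent biological replicates.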
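Throughout, for solubility change mitosis vs G1/S (difference of NP-40 vs SDS log2 ratios): synchronized HeLa Kyoto cells (double thymidine block for G1/S, nocodazole release for mitosis), protein amounts in NP-40 versus SDS lysates quantified by mass spectrometry, three biological replicates.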
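Throughout, for solubility in G1/S (NP-40 vs SDS abundance): HeLa Kyoto cells arrested at G1/S by double thymidine block, proteins quantified by TMT10plex mass spectrometry in mild NP-40 versus SDS extracts, three biological replicates.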
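Throughout, for thermal stability score vs G1/S (z-score of summed log2 fold changes over temperatures): synchronized HeLa Kyoto cells, proteins quantified by TMT10plex mass spectrometry, three biological replicates, mitosis taken 0.5 h after nocodazole release, G1/S directly after double thymidine block.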

With “MSRHEGVSCDACLKGNFRGRRYKCLICYDYDLCASCYESGATTTRHTTDHPMQCILTRVDFDLYYGGEAFSVEQPQSFTCPYCGKMGYTETSLQEHVTSEHAETSTEVICPICAALPGGDPNHVTDDFAAHLTLEHRAPRDLDESSGVRHVRRMFHPGRGLGGPRARRSNMHFTSSSTGGLSSSQSSYSPSNREAMDPIAELLSQLSGVRRSAGGQLNSSGPSASQLQQLQMQLQLERQHAQAARQQLETARNATRRTNTSSVTTTITQSTATTNIANTESSQQTLQNSQFLLTRLNDPKMSETERQSMESERADRSLFVQELLLSTLVREESSSSDEDDRGEMADFGAMGCVDIMPLDVALENLNLKESNKGNEPPPPPL [KCMF1]”, the melting temperature in the data set on HeLa Kyoto [1] (cell cycle stage: G1/S) worked out at 51.7 °C. The “solubility in G1/S (log2)” value with HeLa Kyoto [2] is -0.415. Moreover, the “solubility change mitosis (log2)” value in the data set with HeLa Kyoto [3] was 0.00437. The thermal stability score was -1.31 in the data set on HeLa Kyoto [4] (setting [5]) and -1.41 with HeLa Kyoto [4] (cell cycle stage: mitosis).

Consider GALK1, for which the melting temperature was 52.6 °C in the data set with HeLa Kyoto [1] (cell cycle stage: G1/S) and 52.7 °C in the data set on HeLa Kyoto [1] (cell cycle stage: mitosis). Also, the “solubility in G1/S (log2)” value in the data set on HeLa Kyoto [2] came to 0.313. Also, the “solubility change mitosis (log2)” value in the data set on HeLa Kyoto [3] is -0.117. In addition, the thermal stability score with HeLa Kyoto [4] (setting [5]) was determined as 3.18; with HeLa Kyoto [4] (cell cycle stage: mitosis), 1.65.

As to “MPLSDFILALKDNPYFGAGFGLVGVGTALALARKGVQLGLVAFRRHYMITLEVPARDRSYAWLLSWLTRHSTRTQHLSVETSYLQHESGRISTKFEFVPSPGNHFIWYRGKWIRVERSREMQMIDLQTGTPWESVTFTALGTDRKVFFNILEEARELALQQEEGKTVMYTAVGSEWRPFGYPRRRRPLNSVVLQQGLADRIVRDVQEFIDNPKWYTDRGIPYRRGYLLYGPPGCGKSSFITALAGELEHSICLLSLTDSSLSDDRLNHLLSVAPQQSLVLLEDVDAAFLSRDLAVENPVKYQGLGRLTFSGLLNALDGVASTEARIVFMTTNHVDRLDPALIRPGRVDLKEYVGYCSHWQLTQMFQRFYPGQAPSLAENFAEHVLRATNQISPAQVQGYFMLYKNDPVGAIHNAESLRR [BCS1L]”, the figures for the melting temperature in the data set with HeLa Kyoto [1] (cell cycle stage: G1/S) and with HeLa Kyoto [1] (cell cycle stage: mitosis) were 55.4 °C and 54.8 °C, respectively. Moreover, the “solubility in G1/S (log2)” value with HeLa Kyoto [2] is -0.165. Further, the “solubility change mitosis (log2)” value in the data set on HeLa Kyoto [3] is -0.291. Also, the thermal stability score was 0.147 with HeLa Kyoto [4] (setting [5]) and -1.22 in the data set on HeLa Kyoto [4] (cell cycle stage: mitosis).

As to “MERHQPRLHHPAQGSAAGTPYPSSASLRGCRESKMPRRKGPQHPPPPSGPEEPGEKRPKFHLNIRTLTDDMLDKFASIRIPGSKKERPPLPNLKTAFASSDCSAAPLEMMENFPKPLSENELLELFEKMMEDMNLNEDKKAPLREKDFSIKKEMVMQYINTASKTGSLKRSRQISPQEFIHELKMGSADERLVTCLESLRVSLTSNPVSWVESFGHEGLGLLLDILEKLISGKIQEKVVKKNQHKVIQCLKALMNTQYGLERIMSEERSLSLLAKAVDPRHPNMMTDVVKLLSAVCIVGEESILEEVLEALTSAGEEKKIDRFFCIVEGLRHNSVQLQVACMQLINALVTSPDDLDFRLHIRNEFMRCGLKEILPNLKCIKNDGLDIQLKVFDEHKEEDLFELSHRLEDIRAELDEAYDVYNMVWSTVKETRAEGYFISILQHLLLIRNDYFIRQQYFKLIDECVSQIVLHRDGMDPDFTYRKRLDLDLTQFVDICIDQAKLEEFEEKASELYKKFEKEFTDHQETQAELQKKEAKINELQAELQAFKSQFGALPADCNIPLPPSKEGGTGHSALPPPPPLPSGGGVPPPPPPPPPPPLPGMRMPFSGPVPPPPPLGFLGGQNSPPLPILPFGLKPKKEFKPEISMRRLNWLKIRPHEMTENCFWIKVNENKYENVDLLCKLENTFCCQQKERREEEDIEEKKSIKKKIKELKFLDSKIAQNLSIFLSSFRVPYEEIRMMILEVDETRLAESMIQNLIKHLPDQEQLNSLSQFKSEYSNLCEPEQFVVVMSNVKRLRPRLSAILFKLQFEEQVNNIKPDIMAVSTACEEIKKSKSFSKLLELVLLMGNYMNAGSRNAQTFGFNLSSLCKLKDTKSADQKTTLLHFLVEICEEKYPDILNFVDDLEPLDKASKVSVETLEKNLRQMGRQLQQLEKELETFPPPEDLHDKFVTKMSRFVISAKEQYETLSKLHENMEKLYQSIIGYYAIDVKKVSVEDFLTDLNNFRTTFMQAIKENIKKREAEEKEKRVRIAKELAERERLERQQKKKRLLEMKTEGDETGVMDNLLEALQSGAAFRDRRKRTPMPKDVRQSLSPMSQRPVLKVCNHENQKVQLTEGSRSHYNINCNSTRTPVAKELNYNLDTHTSTGRIKAAEKKEACNVESNRKKETELLGSFSKNESVPEVEALLARLRAL [DIAPH3]”, the values for the melting temperature with HeLa Kyoto [1] (cell cycle stage: G1/S) and in the data set on HeLa Kyoto [1] (cell cycle stage: mitosis) were 46.8 °C and 46.4 °C, respectively. Further, in the data set on HeLa Kyoto [2], the “solubility in G1/S (log2)” value is 0.186. The “solubility change mitosis (log2)” value with HeLa Kyoto [3] is -0.183. Also, the results for the thermal stability score in the data set on HeLa Kyoto [4] (setting [5]) and in the data set on HeLa Kyoto [4] (cell cycle stage: mitosis) were 1.77 and 3.55, respectively.

Consider “MARSVRVLVDMDGVLADFEAGLLRGFRRRFPEEPHVPLEQRRGFLAREQYRALRPDLADKVASVYEAPGFFLDLEPIPGALDAVREMNDLPDTQVFICTSPLLKYHHCVGEKYRWVEQHLGPQFVERIILTRDKTVVLGDLLIDDKDTVRGQEETPSWEHILFTCCHNRHLVLPPTRRRLLSWSDNWREILDSKRGAAQRE [NT5C]”, for which the melting temperature in the data set with HeLa Kyoto [1] (cell cycle stage: G1/S) was 55.9 °C; in the data set on HeLa Kyoto [1] (cell cycle stage: mitosis), 57 °C. For the same substance, the “solubility in G1/S (log2)” value in the data set on HeLa Kyoto [2] was determined as 0.0484. For the same substance, in the data set on HeLa Kyoto [3], the “solubility change mitosis (log2)” value was -0.172. The thermal stability score is -0.241 with HeLa Kyoto [4] (setting [5]) and -1.24 in the data set on HeLa Kyoto [4] (cell cycle stage: mitosis).

As for “MKLPARVFFTLGSRLPCGLAPRRFFSYGTKILYQNTEALQSKFFSPLQKAMLPPNSFQGKVAFITGGGTGLGKGMTTLLSSLGAQCVIASRKMDVLKATAEQISSQTGNKVHAIQCDVRDPDMVQNTVSELIKVAGHPNIVINNAAGNFISPTERLSPNAWKTITDIVLNGTAFVTLEIGKQLIKAQKGAAFLSITTIYAETGSGFVVPSASAKAGVEAMSKSLAAEWGKYGMRFNVIQPGPIKTKGAFSRLDPTGTFEKEMIGRIPCGRLGTVEELANLAAFLCSDYASWINGAVIKFDGGEEVLISGEFNDLRKVTKEQWDTIEELIRKTKGS [DECR1]”, the melting temperature in the data set on HeLa Kyoto [1] (cell cycle stage: G1/S) came to 55.7 °C; in the data set with HeLa Kyoto [1] (cell cycle stage: mitosis) it was 55.5 °C. Besides, the “solubility in G1/S (log2)” value in the data set with HeLa Kyoto [2] was determined as 0.0868. In the data set with HeLa Kyoto [3], the “solubility change mitosis (log2)” value was 0.263. Moreover, the thermal stability score was 0.81 with HeLa Kyoto [4] (setting [5]) and -1.85 in the data set on HeLa Kyoto [4] (cell cycle stage: mitosis).

For “MTTYSDKGAKPERGRFLHFHSVTFWVGNAKQATSFYCSKMGFEPLAYRGLETGSREVVSHVIKQGKIVFVLSSALNPWNKEMGDHLVKHGDGVKDIAFEVEDCDYIVQKARERGAKIMREPWVEQDKFGKVKFAVLQTYGDTTHTLVEKMNYIGQFLPGYEAPAFMDPLLPKLPKCSLEMIDHIVGNQPDQEMVSASEWYLKNLQFHRFWSVDDTQVHTEYSSLRSIVVANYEESIKMPINEPAPGKKKSQIQEYVDYNGGAGVQHIALKTEDIITAIRHLRERGLEFLSVPSTYYKQLREKLKTAKIKVKENIDALEELKILVDYDEKGYLLQIFTKPVQDRPTLFLEVIQRHNHQGFGAGNFNSLFKAFEEEQNLRGNLTNMETNGVVPGM [HPD]”, the melting temperature was 53.6 °C with HeLa Kyoto [1] (cell cycle stage: G1/S) and 53.5 °C in the data set with HeLa Kyoto [1] (cell cycle stage: mitosis). Besides, in the data set with HeLa Kyoto [2], the “solubility in G1/S (log2)” value turned out to be 0.143. Moreover, the “solubility change mitosis (log2)” value in the data set on HeLa Kyoto [3] is -0.0296. The figures for the thermal stability score with HeLa Kyoto [4] (setting [5]) and in the data set on HeLa Kyoto [4] (cell cycle stage: mitosis) were 1.14 and 1.46, respectively.

The values above are taken from the supplement of paper PMC5998384.
